This note sets out measurements from paper PMC12126490, “The HP1 box of KAP1 organizes HP1α for silencing of endogenous retroviral elements in embryonic stem cells” (Nature Communications, 2025).

Assay [1] deals with endogenous HP1α in KAP1^−/− ESCs. The experiment in a line: immunofluorescence of endogenous HP1α. The assay is classed as cell-based. Conditions: KAP1^−/− mouse ESCs stably expressing the GFP-labeled construct, anti-HP1α antibody, DAPI. The protocol:
The constructs coding for GFP-KAP1RF and the P486A/V488A/L490A mutant were transfected into 1 ×10^5 KAP1^−/− mouse ESCs using Lipofectamine 3000 (Invitrogen). Forty-eight hours post-transfection, cells were trypsinized and plated at a colony density in selection medium containing 10 μg/ml blasticidin (Thermo Fisher Sci) for one week. The selection process was repeated once to establish stable GFP-KAP1 expressing cell lines.
For immunostaining, mouse ESCs were cultured on Geltrex-coated coverslips (Life Technologies) in DMEM supplemented with 16% fetal bovine serum, 0.1 mM β-mercaptoethanol (Invitrogen), 2 mM L-glutamine, 1× MEM non-essential amino acids, 100 U/ml penicillin, 100 µg/ml streptomycin (PAA), 2i (1 μM PD032591 and 3 μM CHIR99021 (Axon Medchem, Netherlands) and 1000 U/ml recombinant LIF (Millipore). Coverslips were rinsed twice with PBS (pH 7.4; 140 mM NaCl, 2.7 mM KCl, 6.5 mM Na2HPO4, 1.5 mM KH2PO4), followed by fixation with 3.7% formaldehyde (Sigma) for 10 min. Fixed cells were washed three times (10 min each) with PBST (PBS + 0.01% Tween-20), permeabilized in 0.5% Triton X-100 for 10 min, and washed twice (10 min each) with PBST. Primary and secondary antibodies were prepared in blocking solution (PBST + 3% BSA). […]

In assay [2] the test system is DNA-induced HP1α phase separated droplets. Description: in vitro droplet assay. The conditions noted are these: 50 µM HP1α, 0.18 µM 601 DNA. The text has this: For droplet assays, cDNA of full-length HP1α was cloned into a pET28 expression vector. His-tag fusion HP1α was expressed in E. coli and purified as in ref. [51]. cDNA of the KAP1FR fragment (aa 114–834) was cloned into a pCAG-GFP expression vector, and the P486A/V488A/L490A mutant of GFP-KAP1FR was generated using overlap extension PCR. Purification of GFP-KAP1FR proteins was described in ref. [52].
For the droplet assay, Widom 601 DNA was amplified by PCR using a plasmid coding for 12× 601 DNA with primers as follows: 601 DNA_F: […] and 601 DNA_R: TGCACAGGATGTATATATCTGACAC. HP1α was concentrated to ~10 µg/µl using Amicon concentrators. The buffer changes for both HP1α and GFP-KAP1FR solutions were carried out using Zeba™ Spin Desalting Columns with a buffer containing 20 mM HEPES at pH 7.2, 75 mM KCl, and 1 mM DTT. For visualization of His-tagged-HP1α within the droplets, 500 ng of protein was labeled with the 647 N fluorescent label using the Monolith NT™ Protein Labeling Kit RED-NHS from Nano Temper. To form HP1α droplets, 50 µM of HP1α was incubated with 0.18 µM of 601 DNA for 3 min and dropped into ibidi chamber (µ-Slide 18 Well). Subsequently, 50 ng of the labeled HP1α and 100 ng of GFP-KAP1FR (wild type or mutant) were added into HP1α/DNA droplets. The images of the droplets were collected using a Nikon TiE microscope equipped with a Yokogawa CSU-W1 spinning-disk confocal unit (50 μm pinhole size), an Andor Borealis illumination unit, Andor ALC600 laser beam combiner (405 nm/488 nm/561 nm/640 nm), Andor IXON 888 Ultra EMCCD camera, and a Nikon 100×/1.45 NA oil immersion objective. The size and intensity of HP1α phase-separated droplets were analyzed using ImageJ.

B1: GFP-KAP1FR-PVLmut: P486A/V488A/L490A mutant of GFP-KAP1FR impaired in HP1α binding (protein)
chain: VVDCPVCKQQCFSKDIVENYFMRDSGSKAATDAQDANQCCTSCEDNAPATSYCVECSEPLCETCVEAHQRVKYTKDHTVRSTGPAKSRDGERTVYCNVHKHEPLVLFCESCDTLTCRDCQLNAHKDHQYQFLEDAVRNQRKLLASLVKRLGDKHATLQKSTKEVRSSIRQVSDVQKRVQVDVKMAILQIMKELNKRGRVLVNDAQKVTEGQQERLERQHWTMTKIQKHQEHILRFASWALESDNNTALLLSKKLIYFQLHRALKMIVDPVEPHGEMKFQWDLNAWTKSAEAFGKIVAERPGTNSTGPAPMAPPRAPGPLSKQGSGSSQPMEVQEGYGFGSGDDPYSSAEPHVSGVKRSRSGEGEVSGLMRKVARASAERLDLDLTADSQPPVFKVFPGSTTEDYNLIVIERGAAAAATGQPGTAPAGTPGAPPLAGMAIVKEEETEAAIGAPPTATEGPETKPVLMALAEGPGAEGPRLASPSGSTSSGLEVVAPEGTSAPGGGPGTLDDSATICRVCQKPGDLVMCNQCEFCFHLDCHLPALQDVPGEEWSCSLCHVLPDLKEEDGSLSLDGADSTGVVAKLSPANQRKCERVLLALFCHEPCRPLHQLATDSTFSLDQPGGTLDLTLIRARLQEKLSPPYSSPQEFAQDVGRMFKQFNKLTEDKADVQSIIGLQRFFETRMNEAFGDTKFSAVLVEPPPMSLPGAGLSSQELSGGPGDG
modifications: left off: GFP, end not stated, kept
Consider B1, for which the “distribution of endogenous HP1α (puncta)” value in assay [1] is “more dispersed and formed smaller and fewer puncta”. In assay [2] (20 mM HEPES pH 7.2, 75 mM KCl, 1 mM DTT, 100 ng GFP-KAP1FR, 50 ng labeled HP1α), the “sequestration of 647N labeled HP1α into droplets” value is given as “unable to sequester 647N labeled HP1α into the condensed phase”. Moreover, the “localization of GFP-KAP1FR in droplets” value in assay [2] (confocal microscopy) was “concentrated at the periphery of the droplets”.
